According to patent publication US20060252677A1 (published 2006):

Target: T1, His-tag fused human PJ01087 protein (Protein-Y) (human, UniProt O95886 1-979)
T1 construct: Used as 1% Triton-X supernatant of E. coli; also called His-PJ01087; not shown: N-terminal His-tag and linker encoded by vector pDEST17
T1 sequence: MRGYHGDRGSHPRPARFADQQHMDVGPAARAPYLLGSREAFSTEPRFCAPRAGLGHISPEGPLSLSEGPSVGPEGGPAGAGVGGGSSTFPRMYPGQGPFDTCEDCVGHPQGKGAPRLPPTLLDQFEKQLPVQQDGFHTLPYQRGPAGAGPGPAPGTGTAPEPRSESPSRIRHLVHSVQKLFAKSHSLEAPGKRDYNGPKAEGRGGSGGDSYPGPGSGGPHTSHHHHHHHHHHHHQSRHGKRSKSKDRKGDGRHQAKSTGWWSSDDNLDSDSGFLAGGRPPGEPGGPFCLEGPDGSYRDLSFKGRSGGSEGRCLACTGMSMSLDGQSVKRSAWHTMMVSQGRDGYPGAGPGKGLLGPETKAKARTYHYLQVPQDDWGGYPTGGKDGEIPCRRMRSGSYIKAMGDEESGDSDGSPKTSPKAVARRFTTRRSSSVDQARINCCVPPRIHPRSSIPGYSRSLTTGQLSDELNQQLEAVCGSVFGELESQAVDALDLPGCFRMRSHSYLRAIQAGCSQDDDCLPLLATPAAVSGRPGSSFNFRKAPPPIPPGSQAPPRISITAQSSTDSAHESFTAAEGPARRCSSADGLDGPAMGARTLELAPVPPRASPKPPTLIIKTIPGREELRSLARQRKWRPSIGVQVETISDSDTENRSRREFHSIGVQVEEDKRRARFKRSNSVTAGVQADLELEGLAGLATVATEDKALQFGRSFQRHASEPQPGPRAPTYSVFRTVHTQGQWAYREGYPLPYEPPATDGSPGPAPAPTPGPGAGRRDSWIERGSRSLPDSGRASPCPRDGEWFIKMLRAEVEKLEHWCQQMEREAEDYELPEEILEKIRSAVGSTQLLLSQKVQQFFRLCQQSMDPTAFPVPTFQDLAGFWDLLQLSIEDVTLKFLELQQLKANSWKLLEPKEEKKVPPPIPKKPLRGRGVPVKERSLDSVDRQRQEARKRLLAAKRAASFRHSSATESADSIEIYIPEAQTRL
Test: Immunoprecipitation with anti-GST antibody and Protein G-sepharose, Western blot with anti-His-tag antibody
Description: After adding 1 μl of anti-GST antibody (SIGMA) and agitating for 1 hour at 4° C., a further 30 μl of Protein G-sepharose was added thereto, and agitation proceeded for an additional 6 hours at 4° C. Thereafter, the supernatant was removed by centrifugation, and Protein G-sepharose was washed three times with 500 μl of 1% Triton-X/20 mM Tris (pH 7.4). After the washes, 30 μl of 2× sample buffer (2% SDS/50 mM Tris (pH 6.8)/30% glycerol/0.01% bromophenol blue) containing 2-mercaptoethanol was added to Protein G-sepharose and mixed. The samples were boiled for 2 minutes, subjected to electrophoresis on a 5%-20% polyacrylamide gel, and transferred onto a PVDF membrane. Then Western blotting was performed with anti-GST antibodies and anti-His-tag antibodies.
However, when Protein-Y (His-PJ01087) was reacted with Protein-X (GST-hj02537) or the Protein-X mutant (GST-hj (GK−)) to perform immunoprecipitation with an anti-GST antibody followed by detecting with an anti-His-tag antibody, no band showing Protein-Y was detected. Thus, no result showing that binding of Protein-Y to Protein-X exists could be obtained (lanes 5 or 6 in FIG. 23).

B1: GST fused novel PSD (Protein-X) (hj02537) (other, not shown: a dimerising Fc or GST)
chain: MPALSTGSGSDTGLYELLAALPAQLQPHVDSQEDLTFLWDMFGEKSLHSLVKIHEKLHYYEKQSPVPILHGAAALADDLAEELQNKPLNSEIRELLKLLSKPNVKALLSVHDTVAQKNYDPVLPPMPEDIDDEEDSVKIIRLVKNREPLGATIKKDEQTGAIIVARIMRGGAADRSGLIHVGDELREVNGIPVEDKRPEEIIQILAQSQGAITFKIIPGSKEETPSKEGKMFIKALFDYNPNEDKAIPCKEAGLSFKKGDILQIMSQDDATWWQAKHEADANPRAGLIPSKHFQERRLALRRPEILVQPLKVSNRKSSGFRRSFRLSRKDKKTNKSMYECKKSDQYDTADVPTYEEVTPYRRQTNEKYRLVVLVGPVGVGLNELKRKLLISDTQHYGVTVPHTTRARRSQESDGVEYIFISKHLFETDVQNNKFIEYGEYKNNYYGTSIDSVRSVLAKNKVCLLDVQPHTVKHLRTLEFKPYVIFIKPPSIERLRETRKNAKIISSRDDQGAAKPFTEEDFQEMIKSAQIMESQYGHLFDKIIINDDLTVAFNELKTTFDKLETETHWVPVSWLHS
notes: Crude 1% Triton-X E. coli supernatant used for immunoprecipitation; also called GST-hj02537
Does B1 bind?
Result: no binding
